Results from US8299028B2, “Chimeric peptide antagonist for GPCR135 or GPCR142” (Janssen Pharmaceutica NV, priority 2007, dated 2012).
pEC50: −log10 of the molar value.

Assays:
[1] = target: T1, human GPCR142 (Homo sapiens, UniProt Q8TDU9); test: Radioligand binding assay, 125I-R3/I5 tracer, COS-7 cells expressing GPCR142; parameters: expressed in transfected cells; host or cells: COS-7
Excerpt: COS-7 cells in 24-well tissue culture plates transiently expressing GPCR135, GPCR142 or LGR7 were used in radioligand binding assays as described by Liu et al., 2005a, J. Biol. Chem., 280:292-300. ^125I-Relaxin-3/INSL5 (^125I-R3/I5), a radiolabeled chimeric peptide with the human relaxin-3 B-chain and the human INSL5 A-chain (Liu et al., 2005b), was used at a final concentration of 50 pM as the tracer to characterize the binding properties of all truncated relaxin-3 peptides for GPCR135 and GPCR142. ^125I-relaxin-2 (PerkinElmer Biosciences, Boston) was used at a final concentration of 50 pM to characterize the binding properties of the truncated peptides for the relaxin receptor (LGR7). The results were analyzed by GraphPad Prism 4.0 software (Graphpad, San Diego). The IC50 values, which are the ligand concentrations that inhibited 50% of the maximum specific binding, were then calculated.

[2] = target: T2, human GPCR135 (Homo sapiens, UniProt Q9NSD7); test: Antagonism: rightward shift of relaxin-3 dose-response curve, SK-N-MC/CRE-β-gal reporter assay; type: cell-based; parameters: expressed in transfected cells; conditions: pharmacological characterization
T2 sequence (Q9NSD7 1-469): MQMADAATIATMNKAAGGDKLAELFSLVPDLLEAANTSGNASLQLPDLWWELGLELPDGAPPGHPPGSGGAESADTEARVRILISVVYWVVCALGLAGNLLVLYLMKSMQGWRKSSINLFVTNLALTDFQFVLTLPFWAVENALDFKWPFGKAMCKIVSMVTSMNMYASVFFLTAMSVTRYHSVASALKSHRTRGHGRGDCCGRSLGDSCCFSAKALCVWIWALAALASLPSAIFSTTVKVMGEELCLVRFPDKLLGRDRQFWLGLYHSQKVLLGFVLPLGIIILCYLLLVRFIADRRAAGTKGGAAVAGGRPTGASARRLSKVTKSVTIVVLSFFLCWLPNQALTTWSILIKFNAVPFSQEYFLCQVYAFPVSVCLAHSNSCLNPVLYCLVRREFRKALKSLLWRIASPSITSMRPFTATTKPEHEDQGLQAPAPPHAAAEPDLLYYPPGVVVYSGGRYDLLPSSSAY
Experimental: In a functional assay using SK-N-MC/CRE-β-gal cells expressing human GPCR135 (A), GPCR142 (B) or LGR7 (C), ascending concentrations of relaxin-3 (R3) were used to generate dose response curves either in the absence or presence of 10 nM, 100 nM or 1 μM R3(BΔ23-27)R/I5. For Gαi linked GPCR135 and GPCR142, the assay was performed as inhibition of forskolin-induced β-gal expression. LGR7 is linked to Gαs, therefore addition of forskolin is not necessary. The antagonism of R3(BΔ23-27)R/I5 is indicated by the rightward-shift of the relaxin-3's dose-response curve.
(§1) All peptides were tested for their GPCR135, GPCR142, and LGR7 agonist activities in SK-N-MC/CRE cells expressing the relevant receptors as described by Liu et al., 2005b. […] An increase in cAMP concentration in these cells is associated with increased β-gal expression, which can be measured using Chlorophenol Red-β-D-Galactopyranoside (CRGP) as a substrate and reading the optical absorbance at 570 nm. […] The results were analyzed using GraphPad Prism 4.0 software. […] The agonism and antagonism of peptides for rat LGR7 was assayed using a cAMP luminescence assay. […] The cAMP in the cells was measured with a cAMP detection kit (DiscoveRx HitHunter, Cat. #90-0041) according to the manufacturer's protocol. The results were analyzed using GraphPad Prism 4.0 software.

[3] = target: T1, human GPCR142; test: Agonist assay, inhibition of forskolin-induced β-gal expression in SK-N-MC/CRE-β-gal cells; type: cell-based; parameters: expressed in transfected cells; conditions: human GPCR142 agonist response, mean ± SEM; NA = no agonist activity observed
Experimental: FIG. 1 provides a characterization of mutant relaxin-3 peptides as ligands for human GPCR135, GPCR142, and LGR7. The truncated peptides were tested for their GPCR135 and GPCR142 agonist activity using SK-N-MC/CRE-β-gal cells expressing either human GPCR135 (A) or GPCR142 (B). Agonists for GPCR135 or GPCR142 inhibit forskolin induced β-galactosidase (β-gal) expression. The LGR7 agonist activity of the truncated peptides was tested using SK-N-MC/CRE-β-gal cells expressing Gαs-linked human LGR7 (C). Human relaxin-3 was used as positive control in both cases. β-gal expression was measured by colorimetric assay using CPRG as the substrate and reading the absorbance at 570 nm.
as §1, with “protocol. […]” for “protocol. The results were analyzed using GraphPad Prism 4.0 software.”

T1 sequence (Q8TDU9 whole entry, the tested form may be a part): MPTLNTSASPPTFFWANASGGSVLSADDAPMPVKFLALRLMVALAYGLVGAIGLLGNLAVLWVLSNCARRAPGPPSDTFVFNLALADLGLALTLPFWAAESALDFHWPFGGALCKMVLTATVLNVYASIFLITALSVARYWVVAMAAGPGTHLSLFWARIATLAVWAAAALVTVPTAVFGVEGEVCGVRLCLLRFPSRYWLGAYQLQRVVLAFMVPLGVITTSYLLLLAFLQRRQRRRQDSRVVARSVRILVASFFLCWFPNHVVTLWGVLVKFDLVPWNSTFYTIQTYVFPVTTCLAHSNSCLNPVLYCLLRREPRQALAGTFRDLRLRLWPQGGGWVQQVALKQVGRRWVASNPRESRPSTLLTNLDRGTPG

Substance: R3(BΔ23-27)R: Relaxin-3 mutant: B-chain SEQ ID NO:15 (Gly23-Trp27 deleted plus C-terminal Arg), relaxin-3 A-chain SEQ ID NO:13
- affinity of human GPCR142 [1]: high affinities
- GPCR135 antagonist character [2]: GPCR135 antagonists
- pEC50 [3]: < 6.00
